Data published in paper PMC10942606 (eLife, 2023).
Positions count from the first letter of the chain named. Names may count otherwise.

B1: PCNA (endogenous, S. pombe) (natural protein, S. pombe (endogenous in S. pombe), UniProt Q03392 1-260, looked up)
chain: MLEARFQQAALLKKLLDAIKELVTDANFDCNDNGISLQAMDSSHVALVSMLIKSDGFEPYRCDRNIALGINLNALSKVLRCAQNEDLVTLKAEDTPEVLNLVFESEKNDRISDYDVKLMDIDQEHLGIPDIEYDATITMPAAEFQRITRDLLTLSDSVTINASKEGVRFSCKGDIGNGSTTLKQHTDLSDQDQSIEISLTQAVTLTFSLKYLAQFTKATPLATRVTLSMSNDVPLLVEYKMESGFLRFYLAPKIGEEDEE
B2: Pcf1 (large subunit of SpCAF-1) (natural protein, S. pombe, UniProt Q1MTN9 1-544, looked up)
chain: MNSESVDSDVAASTSNKGNELCSSSTDITSLSVSSPNESVIHSSHSASEADEYVCKLSYEGNRKKRIYNGSAEAGKEKKLQKQRAQEERIRQKEAERLKREKERQQREQEKKLREQEKIAAKKMKELEKLEKERIRLQEQQRRKEERDQKLREKEEAQRLRQEQILNKERQQLKLNNFFTKGVEKRIAPNENFVADKTDELNEFEKEFRPFFIKHQMSLSKYPSPNESDSFLDEVLSTSKSYPLKLNDIFTPSDAVSSANSLGVSNRNSENEVRQLMSAYQDPSVSKPQEILSCLSQIPIKFIFFYQDVRPPYFGSYTKTHSHGSNVLLNPWLEDEDIDYTYDSEAEWVADEEDDGEDLESEDEEVDNSDDIVEDGDNAFVDDEDDDKDSVNASNTHRSSGPLEVIVEGPVWDSKFLPDFNCLSLIEPISSFSASTYLQIDPKEDLWASQDTAPASSGMTIGPTSSLSDDLQVRFPSEDIPKFIEYVRNSHDNKVFLIENLRHMFPYVTKNIISETLGKVAVRKGKSVSDGWIIKENFASLLSS
B3: SpCAF-1 complex (Pcf1-Pcf2-Pcf3), wild type, full length (complex, S. pombe)
chain 1: B2 chain
chain 2: MRAEVLQIRWHYDANDDHTPIYSVDFQKNSLNKFATCGGDSKIRIWQLITSESSTKVEYLSTLSRHTQAVNVVRFNPEGNILATAGDEGTIMLWVPTNTPITTLADDAEELALAKEYWKVKIVCRSMGSEIYDLCWSVDSNFLIAGAMDNSLRLYDAHTGQLLTQKFDHSHYVQGVCWDPLNQYIVSESSDRSICLYEIQEEKKNPKKFQLVLKSRICRIEYNVTKFELISVTKPLNNDESSGISEPIETSNNNESPVSKHEALSSTANIVKDGSLERTEPPNSLNSKISYSLYCNETLVSFFRRPAFSPDGLLLVTPAGRLRPHGQPNFEVPYTAYIYTRGSITKQPVACLNGFKKPVIAVRFSPIHYELNSFSNFSFTSVSFNLPYRMVFAVACQDAVYIYDTQTCKPFYRAVNLHYSNLTDIAWNDDGNVLLMTSIDGFCSVITFEPGELGVKSQHKISLPEKRSASPSSIDDSQDNTAGGPATTTLIPRKVESSKVSKKRIAPTPVYP
chain 3: MNTELDMQNFEHIKFLENQISEDHFRWKKNSKHLYNLLITRTLTWPSLSIQWLSAMESITEKAVLKNRLLLGTHAAEGMPNFLQLADLDLPDFNQTILDPVKHYNEDTGELGGYSMQHSCKFQISQRILHNGDVNRVRHMPQNPNIIATMSSCGNAYIFDRTKYTSMPAEEFLPNISLIGHKKEGFGLSWNRQQNCRLVTAANDSKILEWDLNNFSRDTRCLTPVKDFHYDDSPVNDVEYHPHHTNLYIAVNDNGIAFICDNRLQQTCSKTVKASNPLFSVRHNPSIATLFALGSEQDLQLWDLRNLNKSVFNTSEDLSDNRLKVPSRLTLGGTSLSWSWRHSGRIVSACQEYCYVWNFNKANPLEFVHAGHKGTVNEVDFDPFEAQCIASVADDNELHIWKPNVIVN
B4: SpCAF-1-KER* complex (Pcf1 R147E-K150E-K154E-R161E-K168E, Pcf2, Pcf3) (complex, S. pombe)
chain 1: B2 chain with R147E, K150E, K154E, R161E, K168E
chain 2: B3 chain 2
chain 3: B3 chain 3
B5: SpPCNA (recombinant S. pombe PCNA) (natural protein, UniProt Q03392 1-260, looked up)
chain: B1 chain
B6: Pcf3 (small subunit of SpCAF-1) (natural protein, S. pombe, UniProt Q9Y825 1-408, looked up)
chain: B3 chain 3
B7: Pcf1_KER-PIP (56-185) (domain or fragment, S. pombe, UniProt Q1MTN9 56-185, looked up)
chain: KLSYEGNRKKRIYNGSAEAGKEKKLQKQRAQEERIRQKEAERLKREKERQQREQEKKLREQEKIAAKKMKELEKLEKERIRLQEQQRRKEERDQKLREKEEAQRLRQEQILNKERQQLKLNNFFTKGVEK
B8: Pcf1_KER*-PIP (56-185, R147E-K150E-K154E-R161E-K168E) (domain or fragment, S. pombe, UniProt Q1MTN9 56-185, looked up)
chain: B7 chain with R92E, K95E, K99E, R106E, K113E
B9: Pcf2 (medium subunit of SpCAF-1) (natural protein, S. pombe, UniProt O13985 1-512, looked up)
chain: B3 chain 2
B10: Pcf1_ED (325-396) (domain or fragment, S. pombe, UniProt Q1MTN9 325-396, looked up)
chain: SNVLLNPWLEDEDIDYTYDSEAEWVADEEDDGEDLESEDEEVDNSDDIVEDGDNAFVDDEDDDKDSVNASNT

Experiments:
[1] = biological target: FLAG-Pcf1-ED* (expressed from the endogenous pcf1 gene) (S. pombe, UniProt Q1MTN9 1-544, Y340A | W348A); experiment: co-IP
SEC = biological target: the molecule itself; experiment: SEC
S. pombe histones H3−H4 [2] = biological target: T1, S. pombe histones H3−H4 (S. pombe, UniProt P09988 1-136; P09322 1-103); experiment: NMR titration
S. pombe histones H3−H4 [3] = biological target: T1, S. pombe histones H3−H4; experiment: SEC
[4] = biological target: B3; experiment: native gel or EMSA
[5] = biological target: B2; experiment: SEC-SAXS
[6] = biological target: B5; experiment: ITC
S. pombe histones H3−H4 [7] = biological target: T1, S. pombe histones H3−H4; experiment: NMR titration; remark: listed apart in the source

Q: With B1 as the binder, how does the “fold change of bound PCNA against WT Pcf1” value [1] read?
A: Its value is 8 fold of WT Pcf1.

Q: Which results are given for B2?
A: binding result (SEC): binds; binding result (S. pombe histones H3−H4 [2]): binds

Q: Does B3 bind (S. pombe histones H3−H4 [3])?
A: Result: binds

Q: Does B4 bind (S. pombe histones H3−H4 [2])?
A: Result: binds

Q: Does B5 bind [4]?
A: Result: binds

Q: For B6, which “stoichiometry N” value [5] is on record?
A: The value was 1.

Q: With B7 as the binder, how does the Kd [6] read?
A: The Kd was 0.7 ± 0.2 µM.

Q: And the dH [6]?
A: The dH was 2.9 ± 0.6 kCal.M^–1.

Q: And the “stoichiometry N” value [6]?
A: Its value is 0.64 ± 0.04.

Q: Which results are given for B8?
A: Kd [6]: 7.1 ± 1.5 µM; dH [6]: 1 ± 0.5 kCal.M^–1; stoichiometry N [6]: 0.7 ± 0.2

Q: For B9, which “stoichiometry N” value [5] is on record?
A: The value was 1.

Q: Does B10 bind (S. pombe histones H3−H4 [7])?
A: Result: binds
